Results from patent CN113512118A (INST BIOPHYSICS CAS, dated 2021).

Molecular target: T1, sCD146蛋白 (CD146胞外区蛋白, Sino Biological 10115-H08H-20) (human, UniProt P43121 24-559)
T1 construct: extracellular domain; also called 胞外区CD146蛋白
T1 sequence (looked up): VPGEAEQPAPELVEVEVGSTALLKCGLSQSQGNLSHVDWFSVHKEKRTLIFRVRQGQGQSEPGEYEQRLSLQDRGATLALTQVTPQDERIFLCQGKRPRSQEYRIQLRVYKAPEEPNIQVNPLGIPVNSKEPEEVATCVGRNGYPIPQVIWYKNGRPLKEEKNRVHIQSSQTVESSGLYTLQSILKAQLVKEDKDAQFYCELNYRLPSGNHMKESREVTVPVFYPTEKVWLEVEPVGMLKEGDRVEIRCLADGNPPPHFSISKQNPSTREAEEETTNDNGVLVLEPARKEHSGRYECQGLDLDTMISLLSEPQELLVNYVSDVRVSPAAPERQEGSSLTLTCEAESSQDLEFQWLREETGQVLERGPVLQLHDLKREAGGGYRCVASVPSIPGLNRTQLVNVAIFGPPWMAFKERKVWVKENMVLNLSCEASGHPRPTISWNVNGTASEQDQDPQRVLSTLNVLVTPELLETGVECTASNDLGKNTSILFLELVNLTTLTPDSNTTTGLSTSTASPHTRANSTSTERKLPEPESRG
Assay: BLI (Octet Red96), antibody on Anti-Mouse Fc Capture sensor, sCD146 at 250-3.91 nM

- Kd: 1.12 nM
B1: AA98抗体 (mouse monoclonal anti-CD146 antibody AA98) (antibody, mouse IgG2a, kappa, V domains shown)
VH: EVQLLESGAELVRPGASVKLSCKTSGYIFTNYWIHWVKNRSGNGLEWIARIYPGTDITYYNEKFKGKATLTVDKSSSSAYMLLSSLKSEDSSVYFCARSGGYWYFDVWGAGTTVTVSS
VL: ELVMTQSPASLAVSLGQRATISCRASKSVSISGYSYMHWYQQKPGQPPKLLIYLASNLESGVPARFSGSGSGTDFTLNIHPVEEEDAATYYCQHSRELPYTFGGGTKLEIKR
notes: also called 母本AA98抗体; 亲本AA98抗体
